# T1: full-length human CEA on cells (MKN45, LOVO, L929/huCEA, CT26/CEA, CT26-OS8-CEA) (human, UniProt P06731 35-685)
# T1 construct: also called CEACAM5; native CEA
# T1 sequence: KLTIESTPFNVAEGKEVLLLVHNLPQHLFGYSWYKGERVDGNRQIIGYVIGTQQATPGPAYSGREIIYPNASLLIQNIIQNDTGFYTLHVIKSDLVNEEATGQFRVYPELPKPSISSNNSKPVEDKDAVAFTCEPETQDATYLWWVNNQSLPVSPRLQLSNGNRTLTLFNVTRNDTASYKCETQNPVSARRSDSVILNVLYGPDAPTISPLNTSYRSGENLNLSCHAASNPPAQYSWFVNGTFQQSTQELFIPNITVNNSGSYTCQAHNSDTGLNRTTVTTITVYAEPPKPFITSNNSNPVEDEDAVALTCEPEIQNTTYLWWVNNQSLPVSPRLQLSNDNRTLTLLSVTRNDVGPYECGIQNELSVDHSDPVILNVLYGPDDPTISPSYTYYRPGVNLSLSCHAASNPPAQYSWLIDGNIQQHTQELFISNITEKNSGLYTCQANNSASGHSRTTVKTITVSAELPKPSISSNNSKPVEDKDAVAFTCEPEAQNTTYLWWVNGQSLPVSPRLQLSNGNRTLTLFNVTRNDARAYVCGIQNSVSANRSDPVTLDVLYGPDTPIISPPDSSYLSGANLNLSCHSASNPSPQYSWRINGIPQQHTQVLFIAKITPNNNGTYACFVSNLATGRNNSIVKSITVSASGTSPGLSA
# T2: human OX40 ECD-His (human, UniProt P43489 29-216)
# T2 construct: also called human OX40-his; TNFRSF4(OX40)
# T2 sequence: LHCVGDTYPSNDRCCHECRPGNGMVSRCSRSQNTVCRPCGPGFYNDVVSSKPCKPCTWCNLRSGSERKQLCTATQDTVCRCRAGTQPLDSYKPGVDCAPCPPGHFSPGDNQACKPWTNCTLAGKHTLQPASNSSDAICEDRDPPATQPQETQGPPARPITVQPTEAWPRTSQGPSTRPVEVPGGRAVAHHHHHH
# T3: TNFRSF1A (CD120a), Sino Biological (UniProt P19438 30-211, limits assumed)
# T3 construct: also called TNFRSF1A(CD12.a)
# T3 sequence (looked up): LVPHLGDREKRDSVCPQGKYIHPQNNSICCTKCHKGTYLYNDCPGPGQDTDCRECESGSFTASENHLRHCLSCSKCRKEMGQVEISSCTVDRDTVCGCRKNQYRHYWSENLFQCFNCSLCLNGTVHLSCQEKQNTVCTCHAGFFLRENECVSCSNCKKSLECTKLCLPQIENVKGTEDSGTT
# T4: TNFRSF1B (CD120b), Sino Biological (UniProt P20333 23-257)
# T4 sequence (looked up): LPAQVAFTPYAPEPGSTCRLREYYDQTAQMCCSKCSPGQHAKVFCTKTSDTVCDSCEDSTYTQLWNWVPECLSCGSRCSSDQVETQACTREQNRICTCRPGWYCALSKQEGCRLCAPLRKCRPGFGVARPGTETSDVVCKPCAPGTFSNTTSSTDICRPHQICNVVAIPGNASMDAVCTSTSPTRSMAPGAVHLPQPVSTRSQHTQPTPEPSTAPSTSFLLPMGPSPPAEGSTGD
# B1: A-CEAxCD137-M3 (Format A with BGA-4712-M3) (bispecific antibody, human IgG1, kappa)
# heavy: QVQLVQSGAEVKKPGASVKVSCKASGYIFTSYYLHWVRQAPGQGLEWIGYINPQTGKTSYAQKFQGRVTMTRDTSTSTVYMELSSLRSEDTAVYYCAREYGNYNYPLDYWGQGTLVTVSSASTKGPSVFPLAPSSKSTSGGTAALGCLVKDYFPEPVTVSWNSGALTSGVHTFPAVLQSSGLYSLSSVVTVPSSSLGTQTYICNVNHKPSNTKVDKKVEPKSCDKTHTCPPCPAPPAAGPSVFLFPPKPKDTLMISRTPEVTCVVVDVSHEDPEVKFNWYVDGVEVHNAKTKPREEQYNSTYRVVSVLTVLHQDWLNGKEYKCKVSNKALAAPIEKTISKAKGQPREPQVYTLPPSREEMTKNQVSLTCLVKGFYPSDIAVEWESNGQPENNYKTTPPVLDSDGSFFLYSKLTVDKSRWQQGNVFSCSVMHEALHNHYTQKSLSLSPGKGGGGSEVQLLESGGGLVQPGGSLRLSCAASGFTLSAEDVGWVRQAPGKGLEWVSAILDFGGSTYYAESVKGRFTISRDNAKNTLYLQMSSLRAEDTAVYYCARVVYHAGGGVTFDYWGQGTLVTVSS
# light: DIQMTQSPSSLSASVGDRVTITCRASENQYGYLAWYQQKPGKVPKLLIYNYKNLVEGVPSRFSGSGSGTDFTLTISSLQPEDVATYYCQHHLGTPYTFGQGTKVEIKRTVAAPSVFIFPPSDEQLKSGTASVVCLLNNFYPREAKVQWKVDNALQSGNSQESVTEQDSKDSTYSLSSTLTLSKADYEKHKVYACEVTHQGLSSPVTKSFNRGEC
# B2: BGA-4712 (anti-huCD137 VH domain antibody as VH-Fc with inert human IgG1 Fc) (Fc fusion)
# chain: EVQLLESGGGLVQPGGSLRLSCAASGFMLSAEDVGWVRQAPGKGLEWVSAILDFGGSTYYADSVKGRFTISRDNSKNTLYLQMNSLRAEDTAVYYCARVVYHAGGGVTFDYWGQGTLVTVSSGGGGSDKTHTCPPCPAPPAAGPSVFLFPPKPKDTLMISRTPEVTCVVVDVSHEDPEVKFNWYVDGVEVHNAKTKPREEQYNSTYRVVSVLTVLHQDWLNGKEYKCKVSNKALAAPIEKTISKAKGQPREPQVYTLPPSREEMTKNQVSLTCLVKGFYPSDIAVEWESNGQPENNYKTTPPVLDSDGSFFLYSKLTVDKSRWQQGNVFSCSVMHEALHNHYTQKSLSLSPGK
# B3: BGA-5623-mutFc (Fc fusion VH Ab) (Fc fusion)
# chain: EVQLLESGGGLVQPGGSLRLSCAASGFTVSAEDVGWVRQAPGKGLEWVSAILDKGGSTYYAESVKGRFTISRDNAKNTLYLQMSSLRAEDTAVYYCARIVYHAGGGVTFDTRGQGTQVTVSSGGGGSDKTHTCPPCPAPPAAGPSVFLFPPKPKDTLMISRTPEVTCVVVDVSHEDPEVKFNWYVDGVEVHNAKTKPREEQYNSTYRVVSVLTVLHQDWLNGKEYKCKVSNKALAAPIEKTISKAKGQPREPQVYTLPPSREEMTKNQVSLTCLVKGFYPSDIAVEWESNGQPENNYKTTPPVLDSDGSFFLYSKLTVDKSRWQQGNVFSCSVMHEALHNHYTQKSLSLSPGK
# B4: human CD137 ligand-mIgG2a (Fc fusion)
# chain: EPRGPTIKPCPPCKCPAPNLLGGPSVFIFPPKIKDVLMISLSPIVTCVVVDVSEDDPDVQISWFVNNVEVHTAQTQTHREDYNSTLRVVSALPIQHQDWMSGKEFKCKVNNKDLPAPIERTISKPKGSVRAPQVYVLPPPEEEMTKKQVTLTCMVTDFMPEDIYVEWTNNGKTELNYKNTEPVLDSDGSYFMYSKLRVEKKNWVERNSYSCSVVHEGLHNHHTTKSFSRTPGKGGGGSREGPELSPDDPAGLLDLRQGMFAQLVAQNVLLIDGPLSWYSDPGLAGVSLTGGLSYKEDTKELVVAKAGVYYVFFQLELRRVVAGEGSGSVSLALHLQPLRSAAGAAALALTVDLPPASSEARNSAFGFQGRLLHLSAGQRLGVHLHTEARARHAWQLTQGATVLGLFRVTPEIPAGLPSPRSE
# notes: also called human CD137 ligand ECD-mIgG2a; huCD137 ligand
# B5: Urelumab analog (antibody, human IgG4 S228P, kappa, V domains shown)
# VH: QVQLQQWGAGLLKPSETLSLTCAVYGGSFSGYYWSWIRQSPEKGLEWIGEINHGGYVTYNPSLESRVTISVDTSKNQFSLKLSSVTAADTAVYYCARDYGPGNYDWYFDLWGRGTLVTVSS
# VL: EIVLTQSPATLSLSPGERATLSCRASQSVSSYLAWYQQKPGQAPRLLIYDASNRATGIPARFSGSGSGTDFTLTISSLEPEDFAVYYCQQRSNWPPALTFGGGTKVEIKR
# notes: also called Urelumab analog antibody
# B6: anti-CEA Ab (IgG1) (antibody, V domains shown)
# VH: QVQLVQSGAEVKKPGASVKVSCKASGYIFTSYYLHWVRQAPGQGLEWIGYINPQTGKTSYAQKFQGRVTMTRDTSTSTVYMELSSLRSEDTAVYYCAREYGNYNYPLDYWGQGTLVTVSS
# VL: DIQMTQSPSSLSASVGDRVTITCRASENQYGYLAWYQQKPGKVPKLLIYNYKNLVEGVPSRFSGSGSGTDFTLTISSLQPEDVATYYCQHHLGTPYTFGQGTKVEIKR
# How the values were obtained:
# [1] = target: T5, full-length human CD137 on cells (Hut78/huCD137, HEK293 transfectants, JK-NFKB-CD137) (human, UniProt Q07011 24-255); experiment: flow cytometry on Hut78/huCD137 cells
# T5 construct: also called native CD137; TNFRSF9
# T5 sequence (Q07011 24-255 limits assumed): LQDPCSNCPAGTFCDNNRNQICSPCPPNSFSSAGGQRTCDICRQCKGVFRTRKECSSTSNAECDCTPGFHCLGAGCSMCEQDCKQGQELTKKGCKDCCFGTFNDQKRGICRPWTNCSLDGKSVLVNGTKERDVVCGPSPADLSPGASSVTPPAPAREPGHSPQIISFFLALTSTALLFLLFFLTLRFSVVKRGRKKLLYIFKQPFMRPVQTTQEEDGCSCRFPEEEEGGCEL
# human CD137 ECD-mIgG2a [2] = target: T6, human CD137 ECD-mIgG2a (human); experiment: SPR, A-CEAxCD137 format
# T6 construct: ECD 24-183 of huCD137 fused to mouse IgG2a Fc; also called huCD137-mIgG2a; huCD137
# T6 sequence (chain, as listed by the source limits assumed): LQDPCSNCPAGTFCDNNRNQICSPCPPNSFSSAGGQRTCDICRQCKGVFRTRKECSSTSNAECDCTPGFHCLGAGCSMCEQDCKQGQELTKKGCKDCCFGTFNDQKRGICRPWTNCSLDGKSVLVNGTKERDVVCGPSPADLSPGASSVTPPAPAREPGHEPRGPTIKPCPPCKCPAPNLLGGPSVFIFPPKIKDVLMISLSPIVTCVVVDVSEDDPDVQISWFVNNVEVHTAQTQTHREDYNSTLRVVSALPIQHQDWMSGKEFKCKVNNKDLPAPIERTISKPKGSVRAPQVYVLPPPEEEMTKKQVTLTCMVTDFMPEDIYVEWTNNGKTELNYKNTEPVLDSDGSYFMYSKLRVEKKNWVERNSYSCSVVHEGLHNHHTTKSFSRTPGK
# human CD137 ECD-mIgG2a [3] = target: T6, human CD137 ECD-mIgG2a; experiment: SPR, Format A-CEAxCD137; Format A-CEAxCD137, not Fc fusion VH
# [4] = target: T1, full-length human CEA on cells (MKN45, …); experiment: flow cytometry on CT26/CEA cells [panel A]
# [5] = target: T5, full-length human CD137 on cells …; experiment: flow cytometry on Hut78/huCD137 cells [panel A]
# human CD137 ECD-mIgG2a [6] = target: T6, human CD137 ECD-mIgG2a; experiment: SPR, Fc-fusion VH captured
# Description: Characterization of anti-huCD137 VH domain antibodies were made by SPR assays using BIAcore™ T-200 (GE Life Sciences). Briefly, anti-human IgG (Fc) antibody was immobilized on an activated CM5 biosensor chip (Cat.: BR100839, GE Life Sciences). Anti-huCD137 domain antibodies were flowed over the chip surface and captured by anti-human IgG (Fc) antibody. […] The equilibrium dissociation constant (KD) was calculated as the ratio koff/kₒₙ.
# Affinity comparison on CD137 affinity matured variants was made by SPR assays using BIAcore™ T-200 (GE Life Sciences) and flow cytometry as described.
# [7] = target: T5, full-length human CD137 on cells …; experiment: flow cytometry on Hut78/huCD137 cells; remark: listed apart in the source
# [8] = target: T5, full-length human CD137 on cells …; experiment: flow cytometry competition on Hut78/huCD137 cells: serially diluted human CD137 ligand-mIgG2a against BGA-4712 VH-Fc, bound VH-Fc detected with anti-hu IgG Fc [panel B]
# human CD137 ECD-mIgG2a [9] = target: T6, human CD137 ECD-mIgG2a; experiment: competition ELISA on coated human CD137 ECD-mIgG2a: serially diluted human CD137 ligand ECD-mIgG2a against BGA-5623 (IgG4), bound antibody detected with anti-human IgG-HRP [panel A]
# [10] = target: T5, full-length human CD137 on cells …; experiment: flow cytometry on Hut78/huCD137 cells: serially diluted antibody against human CD137 ligand ECD-mIgG2a, bound ligand detected with goat anti-murine IgG-APC [panel B]
# human OX40 ECD-His = target: T2, human OX40 ECD-His; experiment: antigen ELISA, antigens coated at 10 µg/ml
# [11] = target: T3, TNFRSF1A (CD120a), Sino Biological; experiment: antigen ELISA, antigens coated at 10 µg/ml
# human CD40 ECD-mIgG2a = target: T7, human CD40 ECD-mIgG2a (human); experiment: antigen ELISA, antigens coated at 10 µg/ml
# T7 construct: also called TNFRSF5(CD40)
# T7 sequence (chain, as listed by the source limits assumed): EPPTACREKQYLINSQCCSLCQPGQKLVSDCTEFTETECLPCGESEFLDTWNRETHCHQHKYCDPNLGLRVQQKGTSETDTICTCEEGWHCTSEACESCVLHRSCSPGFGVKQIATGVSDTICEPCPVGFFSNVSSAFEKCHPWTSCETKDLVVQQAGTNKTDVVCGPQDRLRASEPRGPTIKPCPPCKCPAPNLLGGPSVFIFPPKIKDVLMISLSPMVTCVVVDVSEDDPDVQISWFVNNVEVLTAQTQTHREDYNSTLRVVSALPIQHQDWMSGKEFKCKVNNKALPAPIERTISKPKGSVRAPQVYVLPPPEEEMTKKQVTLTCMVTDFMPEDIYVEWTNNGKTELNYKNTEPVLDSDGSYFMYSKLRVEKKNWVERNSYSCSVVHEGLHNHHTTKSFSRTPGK
# [12] = target: T4, TNFRSF1B (CD120b), Sino Biological; experiment: antigen ELISA, antigens coated at 10 µg/ml
# [13] = target: T5, full-length human CD137 on cells …; experiment: flow cytometry on Hut78/huCD137 cells [panel B]
binder,measurement,setting,value
B1,EC50,[1],0.52 mg/L
same,Kd,human CD137 ECD-mIgG2a [2],0.289 µM
same,Kd,human CD137 ECD-mIgG2a [3],0.255 µM
B2,binding result,[4],no binding (tested: last point just above 10^2 ug/ml)
same,EC50 (read off the curve),[5],~3 mg/L
B3,Kd,human CD137 ECD-mIgG2a [6],0.0503 µM
same,EC50 (read off the curve),[7],~0.5 mg/L
B4,IC50 (read off the curve),[8],~0.4 mg/L
same,IC50 (read off the curve),human CD137 ECD-mIgG2a [9],~1 mg/L
B5,IC50 (read off the curve),[10],~0.03 mg/L
same,binding result,human OX40 ECD-His,no binding (tested: not shown)
same,binding result,[11],no binding (tested: not shown)
same,binding result,human CD40 ECD-mIgG2a,no binding (tested: not shown)
same,binding result,[12],no binding (tested: not shown)
B6,binding result,[13],no binding (tested: last point just above 10^2 ug/ml)
